Source: doi:10.1101/2023.11.14.567104

Biological target: Recombinant soluble integrin αvβ3 (UniProt P06756)
Assay: SPR

Kd: 470 nM
Substance: Heparin-binding domain (HBD, residues 111-165) of VEGF165, wild type (domain or fragment)
